Data as given in the DeepSol protein solubility set.

Test: soluble on expression in E. coli; label from the status in PepcDB or PDB records

Which “soluble on expression in E. coli” value does the source give for “MSRPTLQVDLLVESFNYKAWSDRRTLDAIARIDAEAFPASLAFALQQLNHMAIVEELFRARLLGEPAPHQQTNSEVVPGYDVLRRRLEDSAAWFAGYVAELPLERRGEWLRFRFADGRDGGMTRQEILFHIVNHGTYHRGAIGHALDLAGAPRPADTYTLYIHSAQPERRE” here?
The value was “not soluble”.

Which “soluble on expression in E. coli” value does the source give for “MSRRRIRKFERPEEALLHLLDAAGIYRVGSRVWLHKPRVRELGFQYLAVETLVREYALAAEREYRGSVVYSKVYGGREYKILLGRGEEVAEASLADPSTVQRLLFSWRHLEELLPSPPLPAFVVDLSLKFMHTEEELSKLRLQIAVALSEVRKYLWDPHLVLTNMDPQTSGWISEVLGDNKVTISQSKPSEILWSMDADRVVILRPDAPQPLSGSEVLAADAFLIGGIVDRIPRPGVSRILDNLVPWGVPRRIELRGSVAGVPERINRIVEILLKARYKYPGNLEKAIITSMTKKDVLTRVYSEIIKRGRRVGSELVVEWSLYEDLSSWLPLTPEDFMLAAKRARARIEGAPRRDNALEHHHHHH” here?
The value was “not soluble”.

With “MSRSGEFCPRCGDEIPEGTDERPELAGAGGQRNSEHVLCDACYFEEFDLVDAPDTIQVRVCSRCGAVHKGNRWVDIGAEDYTDIAVEQVSEALGIHVDAQSVAWQVAPEQLDKNNIRMHAEFSGVIRGTPVTEEVTVPVRISRQTCKRCGKIAGGSFASIVQVRADGRDPTDDERERAEEIAQEYVAAREETGDRNAFITETKSVDDGLDMKISTNQMGLGIAKRITAQLGGSYSDSRRLISEDEDGQELYRMTYAVRLPRYRQGEVIDPEDGDGPVLVRSVQGNLKGVRLATGEDYEASFEAGETPDARRLGFREDGQQTTLVAIEDERAVQVLDPETFESKTVPRPDYLDIDADEVPVLKSHAGLHILPAADADTDELEHHHHHH” as the sequence, how does the “soluble on expression in E. coli” value read?
Its value is “soluble”.

Which “soluble on expression in E. coli” value does the source give for “MSRSKKSRKPGTNSNDQLVVVRTRSESELESRLRKKLKKRKGLKSGSRHSEGSESQVRQAAQKRDPRLGSKKPIPLIVAEPKKLNKQERKLAAEQELAMLEKDAQLNVLLDRLDNGEKLGIGLQKYVDEKLDRIEVLMEQLGLLDDEPEPAPAPQSKPTKKRKTEDDLLSEFEQLDVDKYQD” here?
Its value is “not soluble”.

Which “soluble on expression in E. coli” value does the source give for “MSSDGEQDEENPILARHRREKKELRGKILAKKKAAKCGNKQMQKEAGAECEKMEKEMDERHKKELEEAKKPEESEAVPAENPEASTLSPPSPNPEGSDNDGEGPSSSAFYKTVKISNKAAKKQDKKKKTADKMKAAEAADKEAGKNQLSDRQMEKAAVKEMLAEDHMKMIDIPADGDCMYNAISHQLQEEGIEISVRKLRKRCGTYMREHSEDFRPFIEDMANMDSDSSWATYLGGVENVAEIGGVWGGELELKACSMIFEKTIVVYKQYGGRHTIGEEYSSPKDRALRVVFLRHAYSLGEHYNSTCPY” here?
Its value is “soluble”.

For “MSSFVPNKEQTRTVLIFCFHLKKTAAESHRMLVEAFGEQVPTVKTCERWFQRFKSGDFDVDDKEHGKPPKRYEDAELQALLDEDDAQTQKQLAEQLEVSQQAVSNRLREMGKIQKVGRWVPHELNERQMERRKNTCEILLSRYKRKSFLHRIVTGDEKWIFFVNPKRKKSYVDPGQPATSTARPNRFGKKTMLCVWWDQSGVIYYELLKPGETVNAARYQQQLINLNRALQRKRPEYQKRQHRVIFLHDNAPSHTARAVRDTLETLNWEVLPHAAYSPDLAPSDYHLFASMGHALAEQRFDSYESVKKWLDEWFAAKDDEFYWRGIHKLPERWEKCVASDGKYFE”, which “soluble on expression in E. coli” value is on record?
Its value is “soluble”.

For “MSSGKDFFVHSHALCESENIGKDSRVWAFAHILPGARLGSECNVCDNVFIENDVIIGDRVTLKCGVQVWDGITIEDDVFIGPNATFTNDLFPRSKVYPQTFARTIIRKGASLGANCTILPGITIGINAMVGAGAVVTRSVPPNAIVVGNPAKIIGYVDAKPVNANSETRAEQKAPGVTATSVKNVTLHTMNEVADIRGSLSAGEFERSVPFKTERYFLVYDVPTAETRGEHAHRICHQFLVAVKGSVHVVADDGVNREEFILDKPNQGIHLPPMTWGIQYRYSQDAVLLVFASHYYDAGDYIRNYEEFKSLIANAELEHHHHHH”, which “soluble on expression in E. coli” value is on record?
The value was “soluble”.

With “MSSISLIQPDRDLFSWPQYWAACFGPAPFLPMSREEMDQLGWDSCDIILVTGDAYVDHPSFGMAICGRMLEAQGFRVGIIAQPDWSSKDDFMRLGKPNLFFGVTAGNMDSMINRYTADRRLRHDDAYTPDNVAGKRPDRATLVYTQRCKEAWKDVPVILGGIEASLRRTAHYDYWSDTVRRSVLVDSKADMLMFGNGERPLVEVAHRLAMGEPISEIRDVRNTAIIVKEALPGWSGVDSTRLDTPGKIDPIPHPYGEDLPCADNKPVAPKKQEAKAVTVQPPRPKPWEKTYVLLPSFEKVKGDKVLYAHASRILHHETNPAVPAH” as the sequence, how does the “soluble on expression in E. coli” value read?
The value was “not soluble”.

With “MSSKDKKPSKPSSSRGGIRTLSDLNRRSGPDSDSDSDGPQEYYTGGEKSGMLVQDPSKKDDVDEIFNQARQLGAVEGPLEPPPSSRSFTGTGRLLSGENVPTGNQQPEPVVHNIVFWSNGFTIDDGPLRKLDDPENASFLEVNDFHSIRKSECPKELEPADRRAPVHVNLMRKEEKCPERQKRRVSFQGVGRTLGGSNEGSGSSSPVAPDSAPIPIQTEPAPSQSLVIDETVPTTSIQLRLADGTRLVAKFNHHHTVNDIRGFIDSSRPGASLNYQLQTMGFPPKPLTDLTQTIEEAGLANSVVLQKF” as the sequence, how does the “soluble on expression in E. coli” value read?
Its value is “soluble”.

Which “soluble on expression in E. coli” value does the source give for “MSSKFRTEDAWIIGQRMAARLDHEAYPLHKAAFFNDTHSIVQLLRAGRSLSEKDTHGNTALHIATMLGHREAIAILLANNAPVRIKNIDGWNPLMESVSYGDRQIITEMLRKLKTQTNEKMSRGKPHLMKMFQDLGDFYMEFKWDFQSWIPLLSRILPSDVCLIYKKGNLLRMDTTLADFSERNWERGDITFLFNVDAPPGEQLVVMDNKTKVFQRGRREESEAEIDEEVDVLMSTDIVNAHMSTKTVGFKQAYSGWVFKHAREEQMGDFPVNFYSVEGLKLTTRKRREHLTSDDVKKNKSILHSLTSGHTVNDDEFSVEPPTPKIATPTGRLPTTWEEYSGAAPGAPPQMGRPQIVKTNEKQFKALVGMSEEFPLSVDVLVDLLEVVAPFKHLDKLRRFCSARLPPGFPVCVEIPLLATIAAKVTFQKFQFTNDIQDKMFTIPTSYREDPTRFPDL” here?
Its value is “not soluble”.

For “MSSKNPVDEQPCCGSHEGSHQDPAPETLVVEKEVNNGEKKIRIAVVGCSHGEMDAIYETMTLIEQKNGYKFDLLICCGDYQAVRNYGDLPHMSIPPKYRSLQTFYKYYSGEQKAPVLTLFIGGNHEASGYLCELPNGGWVAPNIYYMGFANCIRFANLRIAGLSGIFSQGDFQFSHYERPSFSERDVKSAYHVRNVDMFRLRQLKSDNENKISNPIDIMLSHDWPGGIPDFGDKEWLFRKKDLFEADHNSGKLGNPSGMKLIYDCRPRYYLAAHLHIAFAALVPHKGSGSGRPQPTRFLSLDKPIPGRKFMQALELNVADDAKLELSYDPQWLAILRNTDLLTTGTKEQLILPDMASNRPCVYERKDFRPTAEELKEIEKLGDLTIRTDSFQQTAPPLKEITESSKNVPPSAYYRNPQSAEFCQWLGIRDLNQMLVEKTSEHVGTPYYMMTQDDANAKPNQDDVDFGDEDFVIDRGHTSDEPEAKKSRLDEDKFEAVPSE”, which “soluble on expression in E. coli” value is on record?
Its value is “soluble”.

For “MSSLCLQRLQEERKKWRKDHPFGFYAKPVKKADGSMDLQKWEAGIPGKEGTNWAGGVYPITVEYPNEYPSKPPKVKFPAGFYHPNVYPSGTICLSILNEDQDWRPAITLKQIVLGVQDLLDSPNPNSPAQEPAWRSFSRNKAEYDKKVLLQAKQYSK”, which “soluble on expression in E. coli” value is on record?
Its value is “soluble”.

With “MSSNDSSLMAGIIYYSQEKYFHHVQQAAAVGLEKFSNDPVLKFFKAYGVLKEEHIQDAISDLESIRHHPDVSLCSTMALIYAHKRCEIIDQEAIQELEYSLKEIRKTLSGTALYYAGLFLWLIGRHDKAKEYIDRMLKISRGFREAYVLRGWVDLTSDKPHTAKKAIEYLEQGIQDTKDVLGLMGKAMYFMMQQNYSEALEVVNQITVTSGSFLPALVLKMQLFLARQDWEQTVEMGHRILEKDESNIDACQILTVHELAREGNMTTVSSLKTQKVILETESRRNPS” as the sequence, how does the “soluble on expression in E. coli” value read?
Its value is “not soluble”.

For “MSSPKKNFKKPQPKTENQKQALNEERIAELKKSRILGKNRPFKKMIYVDTKAQRKQKHENVAFLKTLQENKESDVPKKRRGRKPKHAPLKEKNNLKLFDILEGSLKSHTENDDTNKVISLLVEVWEKKNKKKDNNSLSNKDIVNVLSKFELPDDEIIFVLDELR”, which “soluble on expression in E. coli” value is on record?
Its value is “soluble”.

For “MSSQVSTSRGLPSPSKLGTFESPHTWQMSGPTGQAEAGSSDDQDIRLLSVSWNQDFGCFAAGTSNGFRIFNCDPFKETFRRDLKSGGFGIVEMLFRCNILALVGGGSNAHYPPNKVMIWDDHRSHCIGEFAFRSDVRAVKLGKDYIVIVLERKIYVYNFTDLKLLHQIETQSNPKGLCCLSHHSNTSVLACPGVHQGHVRVEHFGLKVTRMISAHDSHISCMALTMDGLLLATASMKGTLIRIFNTMDGTRLQEVRRGLDKADIYSIALSPNVQWLAVSSDKGTVHIFSLRVRVAGEDASNEQRSLEGPRMDHQNSSSSIDPLIQTNTGSNASSSLSFMKGILPKYFSSEWSFAQFHLPEVTRYIVAFGAQNTVMMVGLDGSFYRCSFDQVNGGQMLQKEYFRFIKADLTPLRTSAP”, which “soluble on expression in E. coli” value is on record?
Its value is “not soluble”.

Which “soluble on expression in E. coli” value does the source give for “MSSSLFAPTIETIDYPFPPKPVPLSDAQKADYKARIKQLLIEKDAVLVAHYYTDPEIQALAEETGGCVSDSLEMARFGRDHPAKTLIVAGVKFMGETAKILSPEKTILMPTLEATCSLDLGCPIDKFSAFCDAHPDHTVVVYANTSAAVKARADWVVTSSIALEIVEHLDSEGKKIIWGPDRHLGSYIAKQTGAEMLMWQGDCIVHDEFKANALRDLKSVYPDAAILVHPESPASVVAMADAVGSTSQLIKAAQTMPNERFIVATDRGIFYKMQQAAPGKTLIEAPTGGNGATCKSCAHCPWMAMNGLKAIEASLSNSDKTTHEIFVDEDLRVKALIPLTRMLDFAKTLNMKVKGNA” here?
Its value is “soluble”.

For “MSSSSFTTERPFTPELLSPAGTLKNMRYAFAYGADAVYAGQPRYSLRVRNNEFNHENLALGIQEAHALGKRFYVVVNIAPHNSKLKTFLRDLKPVIEMGPDALIMSDPGLIMMVRDAFPQMDIHLSVQANAVNWATVKFWQQMGLTRVILSRELSLEEIAEIRAQVPEMELEVFVHGALCMAYSGRCLLSGYINKRDPNQGTCTNACRWEYNVQEGKEDDVGNIVHIHQPIAVKNVEPTLGIGAPTDKVFVIEEAQRPGEYMTASEDEHGTYIMNSKDLRAIQHVERLTQLGVHSLKIEGRTKSFYYCARTAQVYRRAIDDAVAGKPFDPSLLTTLEGLAHRGYTEGFLRRHVHEEQQTYEYGYSVSERQQFVGEFTGVRREGLAEVLVKNKFSRGDSVELMTPKGNIQFTLESMQDKKGQPADIAPGNGHIMYLPIPEEIDVEYGLLIRNLNGTNSRNPHEKA”, which “soluble on expression in E. coli” value is on record?
The value was “not soluble”.
